{
  "source": "patent US20250043302A1",
  "about": "“MUTATED HYDROXYPHENYLPYRUVATE DIOXYGENASE POLYPEPTIDE, AND CODING GENE AND USE THEREOF” (BEIJING DABEINONG BIOTECHNOLOGY CO., LTD., priority 2021, published 2025)",
  "type_in_all_cases": "in vivo",
  "key": {"[1]": {"tested_on": "Arabidopsis thaliana T1 plants", "assay": "Topramezone tolerance of transgenic Arabidopsis thaliana T1 plants (spray, bleached leaf area grade, damage score)", "settings": "7 DAT, Table 4; for Classification and statistics of the grade of pesticide damage: Grade 0 / Classification and statistics of the grade of pesticide damage: Grade 1 / Classification and statistics of the grade of pesticide damage: Grade 2 / Classification and statistics of the grade of pesticide damage: Grade 3: number of plants; for Scores: pesticide damage score 0-100", "procedure,_shortened": "(§1)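 Read-out: per-plant damage grade 0–3 from proportion of bleached leaf area at 7 DAT (1 <50%, 2 >50%, 3 100%). Plants were T1 transformants, glufosinate-selected, plus wild-type CK, sprayed 18 days post-sowing. Rates: topramezone 25–200, isoxaflutole 35–280, mesotrione 52.5–420 g ai/ha.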"}, "[2]": {"tested_on": "Arabidopsis thaliana T1 plants", "assay": "Isoxaflutole tolerance of transgenic Arabidopsis thaliana T1 plants (spray, bleached leaf area grade, damage score)", "parameters": "Scores (pesticide damage): scale not given here", "settings": "spray, Arabidopsis thaliana T1 plants; for Classification and statistics of the grade of pesticide damage: Grade 0 (number of plants) / Classification and statistics of the grade of pesticide damage: Grade 1 (number of plants) / Classification and statistics of the grade of pesticide damage: Grade 2 (number of plants) / Classification and statistics of the grade of pesticide damage: Grade 3 (number of plants): 16 plants", "procedure,_shortened": "as §1"}, "[3]": {"tested_on": "Arabidopsis thaliana T1 plants", "assay": "Mesotrione tolerance of transgenic Arabidopsis thaliana T1 plants (spray, bleached leaf area grade, damage score)", "parameters": "Scores: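 damage score 0-100 computed as Σ(N×S)/(T×M)×100 over grades 0-3 with higher meaning more damage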", "settings": "Arabidopsis thaliana T1 plants; for Grade 0 (classification and statistics of the grade of pesticide damage; number of plants) / Grade 1 (classification and statistics of the grade of pesticide damage; number of plants) / Grade 2 (classification and statistics of the grade of pesticide damage; number of plants) / Grade 3 (classification and statistics of the grade of pesticide damage; number of plants): 16 plants", "procedure,_shortened": "as §1"}, "soybean T1 plants [4]": {"tested_on": "soybean T1 plants", "assay": "Topramezone tolerance of transgenic soybean T1 plants", "settings": "different concentrations", "protocol": "T1 transformants were initially selected from the untransformed seeds using a glufosinate selection scheme. […] The degree of damage caused by the herbicide was measured for each plant according to the proportion of bleached leaf area (the proportion of bleached leaf area=bleached leaf area/total leaf area×100%) 7 days after spraying (7 DAT): the case where there is basically no bleached phenotype is defined as grade 0, the case where the proportion of bleached leaf area is less than 50% is defined as grade 1, the case where the proportion of bleached leaf area is more than 50% is defined as grade 2, and the case where the proportion of bleached leaf area is 100% grade is defined as grade 3.\nThe soybean T1 plants into which the SbHPPD-02 nucleotide sequence was introduced, soybean T1 plants into which the SbHPPDm-F372A-02 nucleotide sequence was introduced, soybean T1 plants into which the SbHPPDm-F383W-02 nucleotide sequence was introduced, soybean T1 plants into which the SbHPPDm-F372A-F383W-02 nucleotide sequence was introduced, soybean T1 plants into which the control vector DBN11726N nucleotide sequence was introduced, and wild-type soybean plants (V3-V4 at seedling stage) were sprayed with topramezone at three different concentrations (i.e., 25 g ai/ha (one-fold field concentration, 1×). […] According to the method in point 6 of Example 1, after 7 days of spraying (7 DAT), the damage degree of each plant by the herbicide was statistically analyzed, and the scoring and resistance evaluation were carried out accordingly. […]"}, "soybean T1 plants [5]": {"tested_on": "soybean T1 plants", "assay": "Isoxaflutole tolerance of transgenic soybean T1 plants", "settings": "different concentrations"}, "soybean T1 plants [6]": {"tested_on": "soybean T1 plants", "assay": "Mesotrione tolerance of transgenic soybean T1 plants", "settings": "different concentrations"}, "[7]": {"settings": "isoxaflutole 35 g ai/ha (0.5x field concentration)"}, "[8]": {"settings": "isoxaflutole 70 g ai/ha (1x field concentration)"}},
  "data": [
    {"molecule": "SbHPPDm-F372A-02: nucleotide sequence encoding Sorghum bicolor HPPD with F372A; vector DBN11759 (nucleic acid, SbHPPDm-F372A-02 Nucleotide Sequence, vector DBN11759) DNA: ATGCCGCCCACTCCAACAACTGCTGCTGCGACGGGAGCAGCTGTCGCCGCTGCTTCTGCTGAGCAGGCTGCCTTCAGGCTCGTCGGGCACAGAAATTTTGTTCGTGTAAATCCAAGGAGTGATAGGTTCCACACCTTGGCTTTTCACCACGTGGAGTTGTGGTGTGCTGATGCAGCCTCGGCAGCGGGGCGCTTCTCGTTTGGTCTCGGTGCTCCGCTCGCCGCAAGATCTGATCTTAGCACTGGAAACACAGCGCATGCCTCCCTGCTCCTGCGCTCTGGCGCGCTGGCGTTCCTCTTCACGGCGCCATATGCTCACGGCGCCGACGCCGCCACCGCGTCATTGCCGTCTTTTAGTGCAGCCGAAGCAAGAAGATTTGCAGCAGACCACGGCCTCGCCGTAAGGGCCGTGGCCTTACGTGTCGCCGATGCCGAAGATGCTTTCCGCGCCTCTGTAGCAGCTGGAGCAAGGCCAGCATTTGAACCTGTTGAATTGGGGTTAGGATTCCGTCTTGCAGAAGTTGAGCTTTATGGCGACGTTGTTTTGAGATACGTTTCATATCCTGATGACGCTGACGCTAGCTTCTTGCCTGGTTTTGTGGGGGTGACATCACCTGGGGCAGCAGATTATGGTCTCAGGCGGTTTGATCATATTGTTGGAAACGTTCCTGAACTCGCGCCGGCGGCAGCCTACTTCGCCGGTTTCACTGGGTTTCATGAATTTGCTGAATTCACAGCCGAGGATGTCGGCACCACCGAGAGTGGACTGAACTCCATGGTGCTGGCCAACAATGCAGAGAATGTCCTTCTTCCCTTGAATGAACCAGTTCATGGAACAAAAAGGCGTTCCCAAATACAAACATACCTCGACCATCATGGTGGACCAGGCGTTCAGCATATGGCTCTCGCTAGTGACGATGTTCTACGAACCCTGCGAGAGATGCAGGCGCGGTCTGCAATGGGAGGATTTGAGTTCATGGCACCTCCTGCCCCTGAATATTATGATGGTGTTCGGAGAAGGGCAGGTGATGTGCTAACTGAAGCTCAAATCAAGGAGTGCCAGGAGCTTGGCGTGCTGGTCGATCGGGATGATCAAGGTGTGCTTCTGCAGATTGCCACTAAACCAGTGGGTGACCGCCCCACGCTGTTCCTAGAGATCATCCAGAGAATAGGGTGCATGGAGAAGGACGAAAAAGGACAAGAGTACCAGAAGGGAGGTTGTGGCGGCTTTGGAAAAGGGAACTTCTCCCAATTATTCAAGTCAATTGAAGACTATGAAAAGAGTTTGGAGGCTAAGCAAGCTGCAGCCGCCCAGGGCAGCTGA", "values": [
      {"measurement": "Classification and statistics of the grade of pesticide damage: Grade 0", "setting": "[1]; topramezone 25 g ai/ha (1×)", "value": 16},
      {"measurement": "Classification and statistics of the grade of pesticide damage: Grade 1", "setting": "[1]; topramezone 25 g ai/ha (1×)", "value": 0},
      {"measurement": "Classification and statistics of the grade of pesticide damage: Grade 2", "setting": "[1]; topramezone 25 g ai/ha (1×)", "value": 0},
      {"measurement": "Classification and statistics of the grade of pesticide damage: Grade 3", "setting": "[1]; topramezone 25 g ai/ha (1×)", "value": 0},
      {"measurement": "Classification and statistics of the grade of pesticide damage: Grade 0", "setting": "[1]; topramezone 100 g ai/ha (4×)", "value": 4},
      {"measurement": "Classification and statistics of the grade of pesticide damage: Grade 1", "setting": "[1]; topramezone 100 g ai/ha (4×)", "value": 4},
      {"measurement": "Classification and statistics of the grade of pesticide damage: Grade 2", "setting": "[1]; topramezone 100 g ai/ha (4×)", "value": 8},
      {"measurement": "Classification and statistics of the grade of pesticide damage: Grade 3", "setting": "[1]; topramezone 100 g ai/ha (4×)", "value": 0},
      {"measurement": "Scores", "setting": "[1]; topramezone 25 g ai/ha (1×)", "value": 0},
      {"measurement": "Scores", "setting": "[1]; topramezone 100 g ai/ha (4×)", "value": 42},
      {"measurement": "Resistance evaluation", "setting": "[1]; topramezone 25 g ai/ha (1×)", "value": "highly"},
      {"measurement": "Resistance evaluation", "setting": "[1]; topramezone 100 g ai/ha (4×)", "value": "poorly"},
      {"measurement": "Resistance evaluation", "setting": "[2]; [7]", "value": "Poorly"},
      {"measurement": "Scores (pesticide damage)", "setting": "[2]; [7]", "value": 67},
      {"measurement": "Classification and statistics of the grade of pesticide damage: Grade 0 (number of plants)", "setting": "[2]; [7]", "value": 0},
      {"measurement": "Classification and statistics of the grade of pesticide damage: Grade 1 (number of plants)", "setting": "[2]; [7]", "value": 2},
      {"measurement": "Classification and statistics of the grade of pesticide damage: Grade 2 (number of plants)", "setting": "[2]; [7]", "value": 12},
      {"measurement": "Classification and statistics of the grade of pesticide damage: Grade 3 (number of plants)", "setting": "[2]; [7]", "value": 2},
      {"measurement": "Resistance evaluation", "setting": "[2]; [8]", "value": "Non-resistant"},
      {"measurement": "Scores (pesticide damage)", "setting": "[2]; [8]", "value": 100},
      {"measurement": "Classification and statistics of the grade of pesticide damage: Grade 0 (number of plants)", "setting": "[2]; [8]", "value": 0},
      {"measurement": "Classification and statistics of the grade of pesticide damage: Grade 1 (number of plants)", "setting": "[2]; [8]", "value": 0},
      {"measurement": "Classification and statistics of the grade of pesticide damage: Grade 2 (number of plants)", "setting": "[2]; [8]", "value": 0},
      {"measurement": "Classification and statistics of the grade of pesticide damage: Grade 3 (number of plants)", "setting": "[2]; [8]", "value": 16},
      {"measurement": "Resistance evaluation", "setting": "[3]; mesotrione 52.5 g ai/ha", "value": "Poorly resistant"},
      {"measurement": "Scores", "setting": "[3]; mesotrione 52.5 g ai/ha", "value": 60},
      {"measurement": "Grade 0 (classification and statistics of the grade of pesticide damage; number of plants)", "setting": "[3]; mesotrione 52.5 g ai/ha", "value": 0},
      {"measurement": "Grade 1 (classification and statistics of the grade of pesticide damage; number of plants)", "setting": "[3]; mesotrione 52.5 g ai/ha", "value": 6},
      {"measurement": "Grade 2 (classification and statistics of the grade of pesticide damage; number of plants)", "setting": "[3]; mesotrione 52.5 g ai/ha", "value": 7},
      {"measurement": "Grade 3 (classification and statistics of the grade of pesticide damage; number of plants)", "setting": "[3]; mesotrione 52.5 g ai/ha", "value": 3},
      {"measurement": "Resistance evaluation", "setting": "[3]; mesotrione 105 g ai/ha", "value": "Non-resistant"},
      {"measurement": "Scores", "setting": "[3]; mesotrione 105 g ai/ha", "value": 100},
      {"measurement": "Grade 0 (classification and statistics of the grade of pesticide damage; number of plants)", "setting": "[3]; mesotrione 105 g ai/ha", "value": 0},
      {"measurement": "Grade 1 (classification and statistics of the grade of pesticide damage; number of plants)", "setting": "[3]; mesotrione 105 g ai/ha", "value": 0},
      {"measurement": "Grade 2 (classification and statistics of the grade of pesticide damage; number of plants)", "setting": "[3]; mesotrione 105 g ai/ha", "value": 0},
      {"measurement": "Grade 3 (classification and statistics of the grade of pesticide damage; number of plants)", "setting": "[3]; mesotrione 105 g ai/ha", "value": 16},
      {"measurement": "tolerance to HPPD-inhibitor herbicides (in words): topramezone", "setting": "soybean T1 plants [4]", "value": "different degrees of tolerance"},
      {"measurement": "tolerance to HPPD-inhibitor herbicides (in words): isoxaflutole", "setting": "soybean T1 plants [5]", "value": "different degrees of tolerance"},
      {"measurement": "tolerance to HPPD-inhibitor herbicides (in words): mesotrione", "setting": "soybean T1 plants [6]", "value": "different degrees of tolerance"}
    ]}
  ]
}
